According to patent US20210147486A1 (VIB VZW, published 2021):

Key:
[1] = target: T1, CsgG Y51A/N55V/F56Q/N91R/K94Q/R97W-del(V105-I107) pore containing the C terminal strep tag (Escherichia coli, UniProt P0AEA2 16-277); assay: reconstitution of purified pore with synthetic peptide; SDS-PAGE after heating
T1 construct: also called Y51A/F56Q/N55V/N91R/K94Q/R97W-del(V105-I107); not shown: C-terminal Strep tag
T1 chain: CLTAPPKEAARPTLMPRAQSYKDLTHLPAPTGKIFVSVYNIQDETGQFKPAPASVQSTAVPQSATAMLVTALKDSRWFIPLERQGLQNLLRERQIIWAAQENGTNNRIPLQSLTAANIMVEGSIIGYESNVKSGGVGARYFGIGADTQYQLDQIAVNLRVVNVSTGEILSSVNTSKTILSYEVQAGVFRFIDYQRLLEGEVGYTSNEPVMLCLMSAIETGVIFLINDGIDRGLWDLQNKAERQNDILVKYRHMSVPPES

[2] = target: T2, CsgG Y51A/F56Q/N91R/K94Q/R97W-del(V105-I107) pore containing the C terminal strep tag (Escherichia coli, UniProt P0AEA2 16-277); assay: pore 1; complex made by incubating pore and peptide; DNA translocation, signal:noise
T2 construct: not shown: C-terminal Strep tag
T2 chain: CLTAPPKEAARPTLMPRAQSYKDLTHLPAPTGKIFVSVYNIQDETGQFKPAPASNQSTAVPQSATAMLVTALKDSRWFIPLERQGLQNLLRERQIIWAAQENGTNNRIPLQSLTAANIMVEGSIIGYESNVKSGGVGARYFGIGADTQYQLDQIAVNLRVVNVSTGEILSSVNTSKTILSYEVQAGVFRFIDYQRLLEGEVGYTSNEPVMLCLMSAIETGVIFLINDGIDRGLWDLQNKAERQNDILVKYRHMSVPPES

[3] = target: T3, CsgG Y51A/N55I/F56Q/N91R/K94Q/R97W-del(V105-I107) pore containing the C terminal strep tag (Escherichia coli, UniProt P0AEA2 16-277); assay: pore 2; complex made by incubating pore and peptide; DNA translocation, signal:noise
T3 construct: N551 read as N55I; also called Y51A/N551/F56Q/N91R/K94Q/R97W-del(V105-I107) (so in the source); not shown: C-terminal Strep tag
T3 chain: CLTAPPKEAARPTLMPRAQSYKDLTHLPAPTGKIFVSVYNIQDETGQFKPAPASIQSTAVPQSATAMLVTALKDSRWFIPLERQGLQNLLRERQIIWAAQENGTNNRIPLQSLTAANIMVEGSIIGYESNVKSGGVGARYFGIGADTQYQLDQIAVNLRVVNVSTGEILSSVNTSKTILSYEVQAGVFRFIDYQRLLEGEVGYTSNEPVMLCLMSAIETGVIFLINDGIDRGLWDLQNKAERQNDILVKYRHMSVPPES

[4] = target: T4, CsgG Y51A/F56A/N91R/K94Q/R97W-del(V105-I107) pore containing the C terminal strep tag (Escherichia coli, UniProt P0AEA2 16-277); assay: pore 4; complex made by incubating pore and peptide; DNA translocation, signal:noise
T4 construct: not shown: C-terminal Strep tag
T4 chain: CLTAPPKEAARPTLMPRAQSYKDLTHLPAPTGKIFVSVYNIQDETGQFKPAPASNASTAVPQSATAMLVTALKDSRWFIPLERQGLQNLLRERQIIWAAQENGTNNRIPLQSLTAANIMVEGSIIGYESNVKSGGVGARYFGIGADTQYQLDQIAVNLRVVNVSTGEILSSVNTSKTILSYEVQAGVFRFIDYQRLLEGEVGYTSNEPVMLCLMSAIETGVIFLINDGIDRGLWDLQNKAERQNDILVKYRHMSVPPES

[5] = target: T5, CsgG Y51A/F56I/N91R/K94Q/R97W-del(V105-I107) pore containing the C terminal strep tag (Escherichia coli, UniProt P0AEA2 16-277); assay: pore 5; complex made by incubating pore and peptide; DNA translocation, signal:noise
T5 construct: F561 read as F56I; also called Y51A/F561/N91R/K94Q/R97W-del(V105-I107) (so in the source); not shown: C-terminal Strep tag
T5 chain: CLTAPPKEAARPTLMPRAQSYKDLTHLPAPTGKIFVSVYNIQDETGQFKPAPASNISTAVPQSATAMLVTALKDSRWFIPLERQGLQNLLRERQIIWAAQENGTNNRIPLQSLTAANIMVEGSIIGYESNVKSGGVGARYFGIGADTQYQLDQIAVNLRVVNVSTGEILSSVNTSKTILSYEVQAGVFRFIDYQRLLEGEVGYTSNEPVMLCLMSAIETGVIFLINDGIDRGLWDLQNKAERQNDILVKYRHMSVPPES

[6] = target: T6, CsgG Y51A/F56V/N91R/K94Q/R97W-del(V105-I107) pore (Escherichia coli, UniProt P0AEA2 16-277); assay: pore 6; complex made by incubating pore and peptide; DNA translocation, signal:noise
T6 chain: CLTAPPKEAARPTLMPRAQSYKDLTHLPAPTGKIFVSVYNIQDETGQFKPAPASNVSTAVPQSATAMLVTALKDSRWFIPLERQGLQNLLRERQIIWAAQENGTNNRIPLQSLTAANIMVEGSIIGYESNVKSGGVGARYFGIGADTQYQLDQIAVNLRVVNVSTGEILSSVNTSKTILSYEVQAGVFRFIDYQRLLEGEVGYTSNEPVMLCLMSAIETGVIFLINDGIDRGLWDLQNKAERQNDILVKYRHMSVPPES

[7] = target: T7, CsgG Y51S/N55A/F56Q/N91R/K94Q/R97W-del(V105-I107) pore (Escherichia coli, UniProt P0AEA2 16-277); assay: pore 7; complex made by incubating pore and peptide; DNA translocation, signal:noise
T7 chain: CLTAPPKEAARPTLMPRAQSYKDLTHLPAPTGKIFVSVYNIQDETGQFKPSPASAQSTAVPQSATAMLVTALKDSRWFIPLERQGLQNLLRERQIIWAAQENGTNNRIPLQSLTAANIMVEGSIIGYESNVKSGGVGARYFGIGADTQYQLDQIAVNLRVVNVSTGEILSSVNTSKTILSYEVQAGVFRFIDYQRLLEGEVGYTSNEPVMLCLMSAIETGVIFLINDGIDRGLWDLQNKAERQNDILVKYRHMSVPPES

[8] = target: T8, CsgG Y51S/N55V/F56Q/N91R/K94Q/R97W-del(V105-I107) pore containing the C terminal strep tag (Escherichia coli, UniProt P0AEA2 16-277); assay: pore 8; complex made by incubating pore and peptide; DNA translocation, signal:noise
T8 construct: not shown: C-terminal Strep tag
T8 chain: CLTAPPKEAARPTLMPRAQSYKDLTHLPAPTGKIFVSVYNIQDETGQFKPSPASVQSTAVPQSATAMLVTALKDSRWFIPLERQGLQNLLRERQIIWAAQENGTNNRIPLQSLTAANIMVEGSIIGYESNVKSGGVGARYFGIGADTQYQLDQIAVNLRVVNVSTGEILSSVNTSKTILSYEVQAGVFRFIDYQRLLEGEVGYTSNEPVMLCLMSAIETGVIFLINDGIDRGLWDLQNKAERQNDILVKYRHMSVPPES

[9] = target: T9, CsgG Y51T/N55V/F56Q/N91R/K94Q/R97W-del(V105-I107) pore containing the C terminal strep tag (Escherichia coli, UniProt P0AEA2 16-277); assay: pore 9; complex made by incubating pore and peptide; DNA translocation, signal:noise
T9 construct: not shown: C-terminal Strep tag
T9 chain: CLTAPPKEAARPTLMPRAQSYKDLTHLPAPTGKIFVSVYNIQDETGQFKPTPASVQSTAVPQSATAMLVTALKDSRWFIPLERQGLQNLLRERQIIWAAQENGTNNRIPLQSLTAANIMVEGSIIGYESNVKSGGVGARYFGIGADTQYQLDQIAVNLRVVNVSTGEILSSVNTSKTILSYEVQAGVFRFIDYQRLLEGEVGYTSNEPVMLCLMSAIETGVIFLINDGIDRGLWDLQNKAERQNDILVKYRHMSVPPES

Measured: binding result

GTMTFQFRNPNFGGNPNNGAFLLNSAQAQNSYKDP [CsgF-(1-35) synthetic peptide]
binds: all assays above
